From patent publication US20150344570A1 (published 2015) come the findings set out here.

B1: GpH7-A5/GpH7-B3 variant E269_01G/GpL16-k0 (antibody, human IgG1, kappa)
heavy 1: not shown
heavy 2: not shown
light: DIVMTQSPLSLPVTPGEPASISCQASESLVHSNRNTYLHWYLQKPGQSPQLLIYKVSNRFSGVPDRFSGSGSGTDFTLKISRVEAEDVGVYYCSQNTHVPPTFGQGTKVEIERTVAAPSVFIFPPSDEQLKSGTASVVCLLNNFYPREAKVQWKVDNALQSGNSQESVTEQDSKDSTYSLSSTLTLSKADYEKHKVYACEVTHQGLSSPVTKSFNRGEC
notes: also called He Ab E269_01G
B2: GpH7-A5/GpH7-B3 variant E269_18N/GpL16-k0 (antibody, human IgG1, kappa)
heavy 1: not shown
heavy 2: not shown
light: B1 light
notes: also called He Ab E269_18N
B3: GpH7-A5/GpH7-B3 variant E269_04F/GpL16-k0 (antibody, human IgG1, kappa)
heavy 1: not shown
heavy 2: not shown
light: B1 light
notes: also called He Ab E269_04F
B4: GpH7-A5/GpH7-B3 variant A327_07I/GpL16-k0 (antibody, human IgG1, kappa)
heavy 1: not shown
heavy 2: not shown
light: B1 light
notes: also called He Ab A327_07I
B5: GpH7-A5/GpH7-B3 variant E269_07I/GpL16-k0 (antibody, human IgG1, kappa)
heavy 1: not shown
heavy 2: not shown
light: B1 light
notes: also called He Ab E269_07I
B6: GpH7-A5/GpH7-B3 variant A330_05P/GpL16-k0 (antibody, human IgG1, kappa)
heavy 1: not shown
heavy 2: not shown
light: B1 light
notes: also called He Ab A330_05P
B7: GpH7-A5/GpH7-B3 variant A330_08L/GpL16-k0 (antibody, human IgG1, kappa)
heavy 1: not shown
heavy 2: not shown
light: B1 light
notes: also called He Ab A330_08L
B8: GpH7-A5/GpH7-B3 variant A327_10E/GpL16-k0 (antibody, human IgG1, kappa)
heavy 1: not shown
heavy 2: not shown
light: B1 light
notes: also called He Ab A327_10E
B9: GpH7-A5/GpH7-B3 variant E269_06M/GpL16-k0 (antibody, human IgG1, kappa)
heavy 1: not shown
heavy 2: not shown
light: B1 light
notes: also called He Ab E269_06M
B10: GpH7-A5/GpH7-B3 variant E269_05P/GpL16-k0 (antibody, human IgG1, kappa)
heavy 1: not shown
heavy 2: not shown
light: B1 light
notes: also called He Ab E269_05P
B11: GpH7-A5/GpH7-B3 variant A330_16H/GpL16-k0 (antibody, human IgG1, kappa)
heavy 1: not shown
heavy 2: not shown
light: B1 light
notes: also called He Ab A330_16H
B12: GpH7-A5/GpH7-B3 variant A327_09D/GpL16-k0 (antibody, human IgG1, kappa)
heavy 1: not shown
heavy 2: not shown
light: B1 light
notes: also called He Ab A327_09D
B13: GpH7-A5/GpH7-B3 variant A330_09D/GpL16-k0 (antibody, human IgG1, kappa)
heavy 1: not shown
heavy 2: not shown
light: B1 light
notes: also called He Ab A330_09D
B14: GpH7-A5/GpH7-B3 variant A330_14T/GpL16-k0 (antibody, human IgG1, kappa)
heavy 1: not shown
heavy 2: not shown
light: B1 light
notes: also called He Ab A330_14T
B15: GpH7-A5/GpH7-B3 variant A330_11K/GpL16-k0 (antibody, human IgG1, kappa)
heavy 1: not shown
heavy 2: not shown
light: B1 light
notes: also called He Ab A330_11K
B16: GpH7-A5/GpH7-B3 variant E269_03V/GpL16-k0 (antibody, human IgG1, kappa)
heavy 1: not shown
heavy 2: not shown
light: B1 light
notes: also called He Ab E269_03V
B17: GpH7-A5/GpH7-B3 variant E269_09D/GpL16-k0 (antibody, human IgG1, kappa)
heavy 1: not shown
heavy 2: not shown
light: B1 light
notes: also called He Ab E269_09D
B18: GpH7-A5/GpH7-B3 variant E269_14T/GpL16-k0 (antibody, human IgG1, kappa)
heavy 1: not shown
heavy 2: not shown
light: B1 light
notes: also called He Ab E269_14T
B19: GpH7-A5/GpH7-B3 variant E269_15Y/GpL16-k0 (antibody, human IgG1, kappa)
heavy 1: not shown
heavy 2: not shown
light: B1 light
notes: also called He Ab E269_15Y
B20: GpH7-A5/GpH7-B3 variant E269_08L/GpL16-k0 (antibody, human IgG1, kappa)
heavy 1: not shown
heavy 2: not shown
light: B1 light
notes: also called He Ab E269_08L
B21: GpH7-A5/GpH7-B3 variant E269_13S/GpL16-k0 (antibody, human IgG1, kappa)
heavy 1: not shown
heavy 2: not shown
light: B1 light
notes: also called He Ab E269_13S
B22: GpH7-A5/GpH7-B3 variant A327_06M/GpL16-k0 (antibody, human IgG1, kappa)
heavy 1: not shown
heavy 2: not shown
light: B1 light
notes: also called He Ab A327_06M
B23: GpH7-A5/GpH7-B3 variant A327_03V/GpL16-k0 (antibody, human IgG1, kappa)
heavy 1: not shown
heavy 2: not shown
light: B1 light
notes: also called He Ab A327_03V
B24: GpH7-A5/GpH7-B3 variant E269_16H/GpL16-k0 (antibody, human IgG1, kappa)
heavy 1: not shown
heavy 2: not shown
light: B1 light
notes: also called He Ab E269_16H
B25: GpH7-A5/GpH7-B3 variant E269_02A/GpL16-k0 (antibody, human IgG1, kappa)
heavy 1: not shown
heavy 2: not shown
light: B1 light
notes: also called He Ab E269_02A
B26: GpH7-A5/GpH7-B3 variant A327_13S/GpL16-k0 (antibody, human IgG1, kappa)
heavy 1: not shown
heavy 2: not shown
light: B1 light
notes: also called He Ab A327_13S
B27: GpH7-B3 variant P238_08L/GpL16-k0 (antibody, human IgG1, kappa)
heavy: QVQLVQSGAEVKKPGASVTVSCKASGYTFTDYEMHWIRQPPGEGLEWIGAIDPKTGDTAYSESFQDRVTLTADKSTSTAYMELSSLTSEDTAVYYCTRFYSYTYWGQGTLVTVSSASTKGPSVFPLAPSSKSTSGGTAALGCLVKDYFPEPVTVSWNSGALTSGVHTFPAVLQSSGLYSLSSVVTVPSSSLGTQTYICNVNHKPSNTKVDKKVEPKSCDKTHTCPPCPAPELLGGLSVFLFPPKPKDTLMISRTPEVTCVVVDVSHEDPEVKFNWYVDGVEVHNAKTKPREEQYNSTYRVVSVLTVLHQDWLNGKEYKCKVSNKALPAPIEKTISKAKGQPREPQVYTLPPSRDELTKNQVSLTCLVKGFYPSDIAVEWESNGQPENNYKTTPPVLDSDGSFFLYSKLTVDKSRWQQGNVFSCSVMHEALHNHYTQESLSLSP
light: B1 light
notes: also called Ho Ab P238_08L
B28: GpH7-B3 variant P271_15Y/GpL16-k0 (antibody, human IgG1, kappa)
heavy: not shown
light: B1 light
notes: also called Ho Ab P271_15Y
B29: GpH7-B3 variant P238_15Y/GpL16-k0 (antibody, human IgG1, kappa)
heavy: not shown
light: B1 light
notes: also called Ho Ab P238_15Y
B30: GpH7-B3 variant Q295_09D/GpL16-k0 (antibody, human IgG1, kappa)
heavy: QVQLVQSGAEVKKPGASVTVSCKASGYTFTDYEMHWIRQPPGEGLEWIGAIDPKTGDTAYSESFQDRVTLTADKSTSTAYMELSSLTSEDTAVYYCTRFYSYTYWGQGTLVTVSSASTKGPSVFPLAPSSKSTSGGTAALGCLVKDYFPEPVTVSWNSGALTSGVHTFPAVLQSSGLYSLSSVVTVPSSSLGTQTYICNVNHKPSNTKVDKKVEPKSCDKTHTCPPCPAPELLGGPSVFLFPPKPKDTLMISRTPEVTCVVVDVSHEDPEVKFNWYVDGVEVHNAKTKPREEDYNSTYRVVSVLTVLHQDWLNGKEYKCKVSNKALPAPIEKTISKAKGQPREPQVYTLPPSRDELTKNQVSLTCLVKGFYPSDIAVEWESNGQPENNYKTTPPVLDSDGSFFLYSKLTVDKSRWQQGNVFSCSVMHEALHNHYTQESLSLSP
light: B1 light
notes: also called Ho Ab Q295_09D
B31: GpH7-B3 variant P238_10E/GpL16-k0 (antibody, human IgG1, kappa)
heavy: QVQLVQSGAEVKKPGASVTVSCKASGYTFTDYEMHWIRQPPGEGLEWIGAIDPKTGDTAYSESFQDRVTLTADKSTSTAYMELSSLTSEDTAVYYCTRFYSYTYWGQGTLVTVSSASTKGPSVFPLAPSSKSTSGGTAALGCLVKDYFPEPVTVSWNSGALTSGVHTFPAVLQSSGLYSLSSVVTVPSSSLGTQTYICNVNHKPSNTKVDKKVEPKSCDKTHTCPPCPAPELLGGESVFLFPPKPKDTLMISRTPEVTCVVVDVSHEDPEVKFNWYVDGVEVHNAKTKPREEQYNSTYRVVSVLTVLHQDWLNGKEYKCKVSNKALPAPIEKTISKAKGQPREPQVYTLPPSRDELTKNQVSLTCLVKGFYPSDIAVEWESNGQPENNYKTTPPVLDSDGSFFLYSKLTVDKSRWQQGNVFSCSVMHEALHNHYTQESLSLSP
light: B1 light
notes: also called Ho Ab P238_10E
B32: GpH7-B3 variant Q295_16H/GpL16-k0 (antibody, human IgG1, kappa)
heavy: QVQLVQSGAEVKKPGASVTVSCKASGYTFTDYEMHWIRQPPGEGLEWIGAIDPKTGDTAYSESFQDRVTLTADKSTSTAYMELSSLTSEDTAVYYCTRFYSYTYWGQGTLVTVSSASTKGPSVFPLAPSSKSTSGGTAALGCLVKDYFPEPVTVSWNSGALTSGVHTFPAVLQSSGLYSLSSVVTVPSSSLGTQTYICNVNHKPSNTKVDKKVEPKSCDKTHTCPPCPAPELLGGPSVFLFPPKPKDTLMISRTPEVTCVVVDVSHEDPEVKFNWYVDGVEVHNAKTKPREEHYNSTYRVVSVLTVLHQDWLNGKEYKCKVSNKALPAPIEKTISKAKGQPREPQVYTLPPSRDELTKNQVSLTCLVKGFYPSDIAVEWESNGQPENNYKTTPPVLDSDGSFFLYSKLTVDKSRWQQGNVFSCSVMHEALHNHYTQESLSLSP
light: B1 light
notes: also called Ho Ab Q295_16H
B33: GpH7-B3 variant Q295_11K/GpL16-k0 (antibody, human IgG1, kappa)
heavy: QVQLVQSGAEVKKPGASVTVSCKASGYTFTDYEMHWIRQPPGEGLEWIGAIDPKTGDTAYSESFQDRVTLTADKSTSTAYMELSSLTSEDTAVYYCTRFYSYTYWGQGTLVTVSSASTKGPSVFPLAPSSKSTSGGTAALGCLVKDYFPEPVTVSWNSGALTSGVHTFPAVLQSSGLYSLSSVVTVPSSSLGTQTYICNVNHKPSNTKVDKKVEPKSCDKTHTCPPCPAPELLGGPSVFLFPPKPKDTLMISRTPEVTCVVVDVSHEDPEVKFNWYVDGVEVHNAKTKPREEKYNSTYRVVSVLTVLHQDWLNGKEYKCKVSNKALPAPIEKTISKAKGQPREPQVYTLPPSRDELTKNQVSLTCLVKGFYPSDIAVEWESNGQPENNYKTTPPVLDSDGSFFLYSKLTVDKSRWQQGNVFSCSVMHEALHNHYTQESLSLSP
light: B1 light
notes: also called Ho Ab Q295_11K
B34: GpH7-B3 variant P329_01G/GpL16-k0 (antibody, human IgG1, kappa)
heavy: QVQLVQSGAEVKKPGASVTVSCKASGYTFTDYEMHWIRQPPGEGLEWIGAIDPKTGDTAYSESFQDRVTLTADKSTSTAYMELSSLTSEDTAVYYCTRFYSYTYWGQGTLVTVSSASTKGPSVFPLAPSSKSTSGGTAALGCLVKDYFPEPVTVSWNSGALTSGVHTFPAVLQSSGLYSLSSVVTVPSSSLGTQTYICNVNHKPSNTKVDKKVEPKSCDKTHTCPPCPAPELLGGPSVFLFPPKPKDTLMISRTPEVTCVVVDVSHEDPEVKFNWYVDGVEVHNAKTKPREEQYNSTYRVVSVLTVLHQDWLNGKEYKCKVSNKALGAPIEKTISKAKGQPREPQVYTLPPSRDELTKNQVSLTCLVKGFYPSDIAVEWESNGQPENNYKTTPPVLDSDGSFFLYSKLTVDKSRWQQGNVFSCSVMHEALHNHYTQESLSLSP
light: B1 light
notes: also called Ho Ab P329_01G
B35: GpH7-B3 variant Q295_15Y/GpL16-k0 (antibody, human IgG1, kappa)
heavy: not shown
light: B1 light
notes: also called Ho Ab Q295_15Y
B36: GpH7-B3 variant P271_14T/GpL16-k0 (antibody, human IgG1, kappa)
heavy: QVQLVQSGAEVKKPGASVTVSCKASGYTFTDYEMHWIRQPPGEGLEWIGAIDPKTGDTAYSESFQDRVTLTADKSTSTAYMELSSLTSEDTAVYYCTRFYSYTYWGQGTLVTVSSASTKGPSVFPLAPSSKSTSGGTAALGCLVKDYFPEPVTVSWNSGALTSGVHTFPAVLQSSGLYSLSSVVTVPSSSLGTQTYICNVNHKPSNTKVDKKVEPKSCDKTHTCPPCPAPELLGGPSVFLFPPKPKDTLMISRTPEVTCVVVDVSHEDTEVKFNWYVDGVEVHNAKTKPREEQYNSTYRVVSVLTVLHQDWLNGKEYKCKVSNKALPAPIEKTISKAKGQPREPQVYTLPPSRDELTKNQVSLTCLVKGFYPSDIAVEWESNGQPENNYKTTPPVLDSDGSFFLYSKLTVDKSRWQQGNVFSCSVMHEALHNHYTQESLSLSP
light: B1 light
notes: also called Ho Ab P271_14T
B37: GpH7-B3 variant P271_03V/GpL16-k0 (antibody, human IgG1, kappa)
heavy: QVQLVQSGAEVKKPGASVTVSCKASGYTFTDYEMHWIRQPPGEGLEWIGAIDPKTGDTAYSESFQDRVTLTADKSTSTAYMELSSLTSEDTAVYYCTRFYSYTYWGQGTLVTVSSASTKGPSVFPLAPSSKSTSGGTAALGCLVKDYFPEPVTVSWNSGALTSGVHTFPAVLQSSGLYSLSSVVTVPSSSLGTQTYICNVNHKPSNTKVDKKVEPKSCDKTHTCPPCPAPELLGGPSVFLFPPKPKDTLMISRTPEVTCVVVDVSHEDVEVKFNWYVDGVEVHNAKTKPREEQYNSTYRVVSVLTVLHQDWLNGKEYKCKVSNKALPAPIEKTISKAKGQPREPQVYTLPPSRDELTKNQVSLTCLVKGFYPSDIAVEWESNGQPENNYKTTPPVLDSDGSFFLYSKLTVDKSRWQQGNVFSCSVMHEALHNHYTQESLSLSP
light: B1 light
notes: also called Ho Ab P271_03V
B38: GpH7-B3 variant P271_16H/GpL16-k0 (antibody, human IgG1, kappa)
heavy: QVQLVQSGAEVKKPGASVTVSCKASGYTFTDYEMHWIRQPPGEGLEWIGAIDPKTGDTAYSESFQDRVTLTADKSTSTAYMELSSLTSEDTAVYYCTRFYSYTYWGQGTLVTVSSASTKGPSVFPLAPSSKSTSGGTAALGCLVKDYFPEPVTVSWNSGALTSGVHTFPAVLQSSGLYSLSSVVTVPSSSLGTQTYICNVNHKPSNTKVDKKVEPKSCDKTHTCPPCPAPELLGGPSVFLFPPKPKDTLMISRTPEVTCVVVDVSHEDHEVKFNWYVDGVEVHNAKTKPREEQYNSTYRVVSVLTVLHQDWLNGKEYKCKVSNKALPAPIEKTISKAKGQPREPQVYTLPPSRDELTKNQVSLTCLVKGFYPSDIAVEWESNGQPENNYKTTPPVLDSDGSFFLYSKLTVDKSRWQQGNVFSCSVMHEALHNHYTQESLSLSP
light: B1 light
notes: also called Ho Ab P271_16H
B39: GpH7-B3 variant P329_02A/GpL16-k0 (antibody, human IgG1, kappa)
heavy: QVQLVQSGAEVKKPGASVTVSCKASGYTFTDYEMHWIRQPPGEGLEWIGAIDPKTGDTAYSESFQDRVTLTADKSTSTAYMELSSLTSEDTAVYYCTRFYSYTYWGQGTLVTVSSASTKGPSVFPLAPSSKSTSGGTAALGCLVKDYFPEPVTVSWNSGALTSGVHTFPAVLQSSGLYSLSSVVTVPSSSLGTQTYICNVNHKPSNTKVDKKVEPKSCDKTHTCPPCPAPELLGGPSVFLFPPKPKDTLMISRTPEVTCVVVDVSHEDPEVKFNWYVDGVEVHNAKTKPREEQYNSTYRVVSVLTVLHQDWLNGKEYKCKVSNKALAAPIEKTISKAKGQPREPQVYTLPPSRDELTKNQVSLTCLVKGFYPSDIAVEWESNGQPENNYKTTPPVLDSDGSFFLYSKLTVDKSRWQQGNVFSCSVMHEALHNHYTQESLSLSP
light: B1 light
notes: also called Ho Ab P329_02A
B40: GpH7-B3 variant P271_02A/GpL16-k0 (antibody, human IgG1, kappa)
heavy: not shown
light: B1 light
notes: also called Ho Ab P271_02A

T1 sequence (P12314 16-292): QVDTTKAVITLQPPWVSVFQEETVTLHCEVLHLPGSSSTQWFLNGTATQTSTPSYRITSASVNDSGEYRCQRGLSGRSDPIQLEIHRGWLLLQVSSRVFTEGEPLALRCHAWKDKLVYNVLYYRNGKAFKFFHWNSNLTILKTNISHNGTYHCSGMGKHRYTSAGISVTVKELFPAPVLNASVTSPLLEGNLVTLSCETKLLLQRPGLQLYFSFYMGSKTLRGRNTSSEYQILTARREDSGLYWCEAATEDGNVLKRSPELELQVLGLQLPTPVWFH

One assay has as its target T1, FcγRIa (human, UniProt P12314 16-292).
T1 construct: extracellular domain; also called FcgRI; 1a
Put plainly: SPR (Biacore); He Ab relative to HeCon Ab = 100. On the procedure:
Analysis of interaction between objective antibody and the FcγR was carried out using Biacore T100 (GE Healthcare). HBS-EP+ (GE Healthcare) was used as the running buffer, and the measurement temperature was set to 25° C. Chips produced by immobilizing the antigen peptide by the amine coupling method to a Series S Sencor Chip CM5 (GE Healthcare), or alternatively, chips produced by allowing preliminarily biotinylated antigen peptides to interact with and immobilize onto a Series S Sensor Chip SA (certified) (GE Healthcare) were used. Antibodies of interest were captured onto an antigen peptide-immobilized chip, and allowed to interact to each FcγR diluted with running buffer. To regenerate and repeatedly use the chip, the antibodies captured on the chip were washed off by reacting 10 mM glycine-HCl, pH 1.5.
Regarding B1, the He/Con_1a was 104 % of control. On the same count and under the same terms, the same measure for B2: 102 % of control; for B3: 103 % of control; for B4: 104 % of control. As to B5, the He/Con_1a is 103 % of control. B6: the He/Con_1a is 101 % of control.

Consider B7, for which the He/Con_1a is 107 % of control. With B8, the He/Con_1a is 103 % of control. As for B9, the He/Con_1a is 104 % of control. In the case of B10, the He/Con_1a was 102 % of control. Regarding B11, the He/Con_1a was 106 % of control. The same measure, in the same setting: the result for B12 reads 103 % of control; that for B13, 109 % of control; that for B14, 105 % of control. Turning to B15, the He/Con_1a is 103 % of control. For the molecule B16, the He/Con_1a is 103 % of control. The same measure, in the same setting: the result for B17 reads 107 % of control. Consider B18, for which the He/Con_1a is 106 % of control. Same read-out and setting: the same measure for B19: 106 % of control. On to B20, for which the He/Con_1a is 104 % of control. As for B21, the He/Con_1a was 103 % of control. As for B22, the He/Con_1a was 103 % of control. Still for that read-out and setting: the result for B23 reads 103 % of control. With B24, the He/Con_1a is 106 % of control.

On to B25, for which the He/Con_1a is 104 % of control. Still for that read-out and setting: the result for B26 reads 102 % of control.

The target in another assay is T1, FcγRIa. The assay is described as follows: SPR (Biacore); Ho Ab relative to HoCon Ab = 100. The essentials:
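SPR, 25° C, HBS-EP+; Ab captured via immobilized antigen peptide (CM5 amine coupling or SA/biotin); FcγR in running buffer as analyte; regen 10 mM glycine-HCl pH 1.5.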
Background: In SPR one partner is held on a chip, and binding of the other changes the refractive index at the surface.
B27: the Ho/Con_1a is 100 % of control. As to B28, the Ho/Con_1a was 99.4 % of control. For B29, the Ho/Con_1a is 99 % of control. For the molecule B30, the Ho/Con_1a is 96.8 % of control.

B31: the Ho/Con_1a is 91.8 % of control. Take B32: the Ho/Con_1a is 99.1 % of control. In the case of B33, the Ho/Con_1a is 99.9 % of control.

With B34, the Ho/Con_1a was 89.5 % of control. In the case of B35, the Ho/Con_1a is 97 % of control. The same measure, in the same setting: the result for B36 reads 99.5 % of control.

For the molecule B37, the Ho/Con_1a was 102 % of control. As to B38, the Ho/Con_1a was 99.4 % of control.

Consider B39, for which the Ho/Con_1a was 98.2 % of control.

Turning to B40, the Ho/Con_1a is 102 % of control.
